Data on one substance can be found in publication doi:10.1101/2025.05.05.652248.

Experiment [1] addresses MA2561 (AmzR, Archaeal Metabolite-sensing Zipper-like Regulator) of Methanosarcina acetivorans (Methanosarcina acetivorans). Put plainly: non-reducing SDS-PAGE.
Experiment [2] shares this target. Put plainly: non-reducing SDS-PAGE. This is another data set of the same source.

Like-named read-outs stand apart in the source and are kept apart here.

The stoichiometry N is a count of units in the complex or per binding partner. Take “MA2561 (AmzR, Archaeal Metabolite-sensing Zipper-like Regulator) of Methanosarcina acetivorans (natural protein)”: the stoichiometry N in experiment [1] was 2; in experiment [2], 4.
